According to publication PMC12866179, “Oxidized MIF is an Alzheimer’s disease drug target relaying external risk factors to tau pathology” (Cell Reports Medicine, 2025):

Biological target: T1, recombinant human wild-type macrophage migration inhibitory factor (MIF) (human), P14174
T1 chain: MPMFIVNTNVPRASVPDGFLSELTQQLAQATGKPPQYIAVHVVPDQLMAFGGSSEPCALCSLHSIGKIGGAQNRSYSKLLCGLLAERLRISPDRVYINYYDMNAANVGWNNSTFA
Experiment: SEC-MALS; 100 uM MIF (WT or C80W) in 20 mM phosphate buffer, with or without 100 uM PAV-174; TSKgel G2000SWXL, 0.5 mL/min, 25 C; UV 280 nm and miniDawn Treos light scattering
Details: remark: other sources report otherwise

B1: recombinant human wild-type macrophage migration inhibitory factor (MIF), P14174 1-115 (natural protein)
chain: T1 chain
  stoichiometry N: 3
